Test [1] addresses RPA-DBD-D^MB543 (S. cerevisiae) (UniProt P22336). Nature of the test: C-trap optical tweezers with confocal fluorescence.
Test [2] deals with RPA-DBD-A^Cy3 (S. cerevisiae) (UniProt P22336). Nature of the test: FRET or BRET. For orientation: In BRET a luciferase serves as donor, and the signal depends on an acceptor being close.
Test [3] has as its target RPA-DBD-D^Cy3 (S. cerevisiae) (UniProt P22336). Put plainly: FRET or BRET.
In test [4] the target is F-A-B-DBD-A^MB543 (S. cerevisiae). Put plainly: other fluorescence titration.
For test [5], the target named is RPA-DBD-A^MB543 (S. cerevisiae) (UniProt P22336). Put plainly: other fluorescence titration.

B1: Rtt105^Cy5 (natural protein)
chain: MYSNHNLNSDDCSFDWNEEKAAELQRTGVSFDRSLTPQSLRTSTRRLSEENKQQSGTMHIDTSPSVVSDIISSRRDRSQDFFGPHSSSPIAPSERQRADQRSRLESMRLTRRRDKMTKVRGGLEKMEEMIMQGEHLREMQRLKQEAQKNALPSDMAEYMEWQNNEDLEDDELLAFIEKQETYKNELEHFLNNANKNVYENNSYPNSHT
modifications: Cy5 (maleimide) on Cys-12
The molecule B1 gave a t1/2 of dissociation in test [1] of 5 s. In test [2], the kobs (single exponential model) is 0.62 s⁻¹ and the kobs (single-step model) amounted to 0.2 s⁻¹. Also, in test [3], the kobs,1 (two-step model) was found to be 3.5 s⁻¹ and the kobs,2 (two-step model) was found to be 0.2 s⁻¹.

B2: Regulator of Ty1 Transposition 105 (Rtt105) (natural protein)
chain: MYSNHNLNSDDCCFDWNEEKAAELQRTGVSFDRSLTPQSLRTSTRRLSEENKQQSGTMHIDTSPSVVSDIISSRRDRSQDFFGPHSSSPIAPSERQRADQRSRLESMRLTRRRDKMTKVRGGLEKMEEMIMQGEHLREMQRLKQEAQKNALPSDMAEYMEWQNNEDLEDDELLAFIEKQETYKNELEHFLNNANKNVYENNSYPNSHT
What is called Kd is the free concentration of one partner at which half of the binding sites on the other are occupied at equilibrium, for simple one-to-one binding. A high value points to lower affinity. Take B2: the values for the Kd in test [4] and in test [5] were 33.9 nM and 61.1 nM, respectively.

Source of the values: paper doi:10.1101/2022.02.05.479199.
